In test [1] the target is T1, CD86 on cells (WIL2-S human B-lymphoblastoid cells; HuCD86-2A2 CHO cells expressing CD86) (human, UniProt P42081 24-329).
T1 construct: whole, on cells; also called cell surface CD86
T1 sequence (looked up): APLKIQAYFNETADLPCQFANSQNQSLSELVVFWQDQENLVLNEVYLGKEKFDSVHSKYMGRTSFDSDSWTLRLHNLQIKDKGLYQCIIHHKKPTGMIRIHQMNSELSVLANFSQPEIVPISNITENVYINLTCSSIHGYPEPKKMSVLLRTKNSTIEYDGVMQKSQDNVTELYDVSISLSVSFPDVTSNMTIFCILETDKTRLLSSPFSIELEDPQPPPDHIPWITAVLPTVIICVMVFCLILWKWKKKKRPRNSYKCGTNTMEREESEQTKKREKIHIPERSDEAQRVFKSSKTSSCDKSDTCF
The test can be described thus: flow cytometry on WIL2-S cells. The procedure:
(§1) Briefly, WIL2-S or HuCD86-2A2 cells were incubated with test molecules containing a CD86 antagonist at concentrations ranging from saturation to background levels. […] After the incubation, cells were washed and a fluorophore (R-phycoerythrin) tagged F(Ab′)₂ antibody specific for the Fc portion of the xceptor molecule, IL10R-Ig fusion protein, or anti-IL10 antibody. The tagged cells were then passed through a flow cytometer and data was analyzed by plotting median fluorescence intensity of each sample.
On the technique in general: A flow cytometer gives signals particle by particle.

In test [2] the target is T2, CD86-mIgG (Ancell, Inc) (UniProt P42081 24-247, limits assumed).
T2 construct: Bought reagent
T2 sequence (looked up): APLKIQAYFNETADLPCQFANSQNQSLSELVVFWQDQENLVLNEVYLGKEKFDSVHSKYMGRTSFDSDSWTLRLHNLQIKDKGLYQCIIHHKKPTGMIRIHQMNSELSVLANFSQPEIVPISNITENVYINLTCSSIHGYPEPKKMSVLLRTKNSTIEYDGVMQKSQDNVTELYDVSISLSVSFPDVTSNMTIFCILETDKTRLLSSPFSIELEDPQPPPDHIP
The test can be described thus: SPR, CD86-mIgG immobilized; reference of the comparison. On the technique in general: Surface plasmon resonance follows binding to a sensor surface in real time, without labels.

In test [3] the target is T1, CD86 on cells (WIL2-S human …). Description: flow cytometry, HEK293 supernatants on HuCD86-2A2 cells. The procedure:
as §1
In another experiment, different versions of humanized FUN1 SMIPs were tested for CD86 binding. Supernatants of HEK293 cells transiently transfected with the six different versions of humanized FUN1 SMIPs were examined for CD86 binding using HuCD86-2A2 cells.

B1: FUN1::IL10 xceptor (Fc fusion)
chain: EVQLQQSGPELEKPGASVKISCKASGYSFTDYNMNWVKQSNGKSLEWIGNIDPYYGGTSYNQKFKGKATLTVDKSSSTAYMQLNSLTSEDSAVYFCARWDYRYDDGRAYYVMDFWGQGTSVTVSSGGGGSGGGGSGGGGSGGGGSELQMTQSPSSLAASAGEKVTMSCKSSQSVLYSSNQKNYLAWYQQKPGQSPKLLIYWASTRESGVPDRFTGSGSGTHFTLTVSSVQAEDLAVYYCHQYLYSWTFGGGTNLEIKRLEPKSSDKTHTCPPCPAPEAAGAPSVFLFPPKPKDTLMISRTPEVTCVVVDVSHEDPEVKFNWYVDGVEVHNAKTKPREEQYNSTYRVVSVLTVLHQDWLNGKAYACAVSNKALPAPIEKTISKAKGQPREPQVYTLPPSRDELTKNQVSLTCLVKGFYPSDIAVEWESNGQPENNYKTTPPVLDSDGSFFLYSKLTVDKSRWQQGNVFSCSVMHEALHNHYTQKSLSLSPGNSLFNQEVQIPLTESYSPNSSPGQGTQSENSCTHFPGNLPNMLRDLRDAFSRVKTFFQMKDQLDNLLLKESLLEDFKGYLGCQALSEMIQFYLEEVMPQAENQDPDIKAHVNSLGENLKTLRLRLRRCHRFLPCENKSKAVEQVKNAFNKLQEKGIYKAMSEFDIFINYIEAYMTMKIRN
notes: anti-CD86 FUN1 scFv - Fc - IL10
For the molecule B1, the binding result in test [1] and in test [2] was “binds” throughout.

B2: FUN1-22 humanized FUN1 SMIP (Fc fusion)
chain: QVQLVQSGAEVKKPGASVKVSCKASGYTFTDYNMNWVRQAPGQGLEWMGNIDPYYGGTSYNQKFKGRVTMTRDTSISTAYMELSRLRSDDTAVYYCARWDYRYDDGRAYYVMDFWGQGTTVTVSSGGGGSGGGGSGGGGSGGGGSDIQMTQSPSSLSASVGDRVTITCKSSQSVLYSSNQKNYLAWYQQKPGKVPKLLIYWASTRESGVPSRFSGSGSGTDFTLTISSLQPEDVATYYCHQYLYSWTFGQGTKLEIKRLEPKSSDKTHTCPPCPAPEAAGAPSVFLFPPKPKDTLMISRTPEVTCVVVDVSHEDPEVKFNWYVDGVEVHNAKTKPREEQYNSTYRVVSVLTVLHQDWLNGKAYACAVSNKALPAPIEKTISKAKGQPREPQVYTLPPSRDELTKNQVSLTCLVKGFYPSDIAVEWESNGQPENNYKTTPPVLDSDGSFFLYSKLTVDKSRWQQGNVFSCSVMHEALHNHYTQKSLSLSPG
notes: SMIP: scFv-hinge-Fc single chain
Turning to B2, the binding result in test [3] is given as “binds”.

These data come from US20120100139A1 (APTEVO RESEARCH AND DEVELOPMENT, published 2012).
